According to PMC9352680, “A comprehensive thermodynamic model for RNA binding by the Saccharomyces cerevisiae Pumilio protein PUF4”:

T1: PUF4 RNA-binding domain (Saccharomyces cerevisiae, UniProt P25339 537-888)
T1 sequence: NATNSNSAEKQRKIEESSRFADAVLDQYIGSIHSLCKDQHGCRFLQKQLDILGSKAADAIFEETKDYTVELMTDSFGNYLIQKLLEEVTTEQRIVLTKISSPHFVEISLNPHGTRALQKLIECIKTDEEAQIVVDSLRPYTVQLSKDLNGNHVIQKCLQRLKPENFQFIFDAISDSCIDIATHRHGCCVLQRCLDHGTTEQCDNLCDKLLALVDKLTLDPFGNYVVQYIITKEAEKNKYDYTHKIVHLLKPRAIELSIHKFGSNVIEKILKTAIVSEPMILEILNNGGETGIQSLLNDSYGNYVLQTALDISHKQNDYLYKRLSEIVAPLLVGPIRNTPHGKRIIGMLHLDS


Target: T1, PUF4 RNA-binding domain
Experiment: Mg; RNA-MaP; 20 mM Na-HEPES pH 7.4, 30 mM KOAc, 0.75 mM MgCl2, 0.1% Tween-20, 5% glycerol, 0.1 mg/mL BSA, 2 mM DTT; 25 C; 0.0125-409.6 nM protein
Details: tags: N-His6-TEV cleaved; C-SNAP kept, Cy3B-labelled; label: tethered on chip by stalled RNA polymerase

| Binder | Kd |
| --- | --- |
| UCUCUUUGUAAUGGUAUCUCUU (ssRNA) [Ic_S1_P5E.1_K5.1_C5.1_H5.1_A5.1_[T5A]_[A7G]_F5.1_[T8G]_T5.1] | 45.1 nM |
| UCUCUUUGUAAGUUGUUCUCUU (ssRNA) [Ic_S1_P5E.1_K5.1_C5.1_H5.1_A5.1_[T5A]_[T6G]_[A7T]_F5.1_[T9G]_[A10T]_T5.1] | 495 nM |
| UCUCUUUGUAUACGGUUCUCUU (ssRNA) [Ic_S1_P5E.1_K5.1_C5.1_H5.1_A5.1_[T6A]_[A7C]_F5.1_[T8G]_[T9G]_[A10T]_T5.1] | 90.4 nM |
| UCUCUUUGUACACCCCUCUCUU (ssRNA) [Ic_S1_P5E.1_K5.1_C5.1_H5.1_A5.1_[T5C]_[T6A]_[A7C]_F5.1_[T8C]_[T9C]_[A10C]_T5.1] | 113 nM |
| UCUCUUUGUAGUUAUUUCUCUU (ssRNA) [Ic_S1_P5E.1_K5.1_C5.1_H5.1_A5.1_[T5G]_[A7T]_F5.1_[T8A]_[A10T]_T5.1] | 705 nM |
| UCUCUUUGUAUGCAGUUCUCUU (ssRNA) [Ic_S1_P5E.1_K5.1_C5.1_H5.1_A5.1_[T6G]_[A7C]_F5.1_[T8A]_[T9G]_[A10T]_T5.1] | 1990 nM |
| UCUCUUUGUAACAGCCUCUCUU (ssRNA) [Ic_S1_P5E.1_K5.1_C5.1_H5.1_A5.1_[T5A]_[T6C]_F5.1_[T8G]_[T9C]_[A10C]_T5.1] | 1140 nM |
| UCUCUUUGUAUGUACUUCUCUU (ssRNA) [Ic_S1_P5E.1_K5.1_C5.1_H5.1_A5.1_[T6G]_[A7T]_F5.1_[T8A]_[T9C]_[A10T]_T5.1] | 64.7 nM |
| UCUCUUUGUACCAUACUCUCUU (ssRNA) [Ic_S1_P5E.1_K5.1_C5.1_H5.1_A5.1_[T5C]_[T6C]_F5.1_[T9A]_[A10C]_T5.1] | 1.59 nM |
| UCUCUUUGUAAACUUUUCUCUU (ssRNA) [Ic_S1_P5E.1_K5.1_C5.1_H5.1_A5.1_[T5A]_[T6A]_[A7C]_F5.1_[A10T]_T5.1] | 37.5 nM |
| UCUCUUUGUAUUUAAUUCUCUU (ssRNA) [Ic_S1_P5E.1_K5.1_C5.1_H5.1_A5.1_[A7T]_F5.1_[T8A]_[T9A]_[A10T]_T5.1] | 46.2 nM |
| UCUCUUUGUAGUAUAUUCUCUU (ssRNA) [Ic_S1_P5E.1_K5.1_C5.1_H5.1_A5.1_[T5G]_F5.1_[T9A]_[A10T]_T5.1] | 8.21 nM |
| UCUCUUUGUAAUUUUCUCUCUU (ssRNA) [Ic_S1_P5E.1_K5.1_C5.1_H5.1_A5.1_[T5A]_[A7T]_F5.1_[A10C]_T5.1] | 29.8 nM |
| UCUCUUUGUACCUUGGUCUCUU (ssRNA) [Ic_S1_P5E.1_K5.1_C5.1_H5.1_A5.1_[T5C]_[T6C]_[A7T]_F5.1_[T9G]_[A10G]_T5.1] | 103 nM |
| UCUCUUUGUACCAAACUCUCUU (ssRNA) [Ic_S1_P5E.1_K5.1_C5.1_H5.1_A5.1_[T5C]_[T6C]_F5.1_[T8A]_[T9A]_[A10C]_T5.1] | 68.1 nM |
| UCUCUUUGUACGUAAUUCUCUU (ssRNA) [Ic_S1_P5E.1_K5.1_C5.1_H5.1_A5.1_[T5C]_[T6G]_[A7T]_F5.1_[T8A]_[T9A]_[A10T]_T5.1] | 126 nM |

| Binder | Kd |
| --- | --- |
| UCUCUUUGUAUACUACUCUCUU (ssRNA) [Ic_S1_P5E.1_K5.1_C5.1_H5.1_A5.1_[T6A]_[A7C]_F5.1_[T9A]_[A10C]_T5.1] | 2.89 nM |
| UCUCUUUGUACUUCGUUCUCUU (ssRNA) [Ic_S1_P5E.1_K5.1_C5.1_H5.1_A5.1_[T5C]_[A7T]_F5.1_[T8C]_[T9G]_[A10T]_T5.1] | 352 nM |
| UCUCUUUGUAUACCACUCUCUU (ssRNA) [Ic_S1_P5E.1_K5.1_C5.1_H5.1_A5.1_[T6A]_[A7C]_F5.1_[T8C]_[T9A]_[A10C]_T5.1] | 20.7 nM |
| UCUCUUUGUACGGUCGUCUCUU (ssRNA) [Ic_S1_P5E.1_K5.1_C5.1_H5.1_A5.1_[T5C]_[T6G]_[A7G]_F5.1_[T9C]_[A10G]_T5.1] | > 2300 nM |
| UCUCUUUGUACAGCAUUCUCUU (ssRNA) [Ic_S1_P5E.1_K5.1_C5.1_H5.1_A5.1_[T5C]_[T6A]_[A7G]_F5.1_[T8C]_[T9A]_[A10T]_T5.1] | 23.4 nM |
| UCUCUUUGUAAACGCCUCUCUU (ssRNA) [Ic_S1_P5E.1_K5.1_C5.1_H5.1_A5.1_[T5A]_[T6A]_[A7C]_F5.1_[T8G]_[T9C]_[A10C]_T5.1] | 1060 nM |
| UCUCUUUGUAAUCUGAUCUCUU (ssRNA) [Ic_S1_P5E.1_K5.1_C5.1_H5.1_A5.1_[T5A]_[A7C]_F5.1_[T9G]_T5.1] | 83.4 nM |
| UCUCUUUGUAAAACCGUCUCUU (ssRNA) [Ic_S1_P5E.1_K5.1_C5.1_H5.1_A5.1_[T5A]_[T6A]_F5.1_[T8C]_[T9C]_[A10G]_T5.1] | 1190 nM |
| UCUCUUCGUGUAUAUCUCUU (ssRNA) [Ib_S1_P3E.1_K3.1_C3.1_H3.1_[T1C]_[A4G]_A3.1_F3.1_T3.1] | 26.7 nM |
| UCUCUUUGUAAUUGCCUCUCUU (ssRNA) [Ic_S1_P5E.1_K5.1_C5.1_H5.1_A5.1_[T5A]_[A7T]_F5.1_[T8G]_[T9C]_[A10C]_T5.1] | 645 nM |
| UCUCUUUGUACGAACCUCUCUU (ssRNA) [Ic_S1_P5E.1_K5.1_C5.1_H5.1_A5.1_[T5C]_[T6G]_F5.1_[T8A]_[T9C]_[A10C]_T5.1] | 1700 nM |
| UCUCUUUGUACCAUCUUCUCUU (ssRNA) [Ic_S1_P5E.1_K5.1_C5.1_H5.1_A5.1_[T5C]_[T6C]_F5.1_[T9C]_[A10T]_T5.1] | 28 nM |
| UCUCUUUGUAAGCUGCUCUCUU (ssRNA) [Ic_S1_P5E.1_K5.1_C5.1_H5.1_A5.1_[T5A]_[T6G]_[A7C]_F5.1_[T9G]_[A10C]_T5.1] | 604 nM |
| UCUCUUUGUAUAUAAAUCUCUU (ssRNA) [Ic_S1_P5E.1_K5.1_C5.1_H5.1_A5.1_[T6A]_[A7T]_F5.1_[T8A]_[T9A]_T5.1] | 8.13 nM |
| UCUCUUUGUACCAUUUUCUCUU (ssRNA) [Ic_S1_P5E.1_K5.1_C5.1_H5.1_A5.1_[T5C]_[T6C]_F5.1_[A10T]_T5.1] | 7.08 nM |
| UCUCUUUGUAUUGCCAUCUCUU (ssRNA) [Ic_S1_P5E.1_K5.1_C5.1_H5.1_A5.1_[A7G]_F5.1_[T8C]_[T9C]_T5.1] | 955 nM |
